Reference: IntAct's records for PubMed 29892012

B1: Ligand of Numb protein X 2 (Homo sapiens), Q8N448 (parent)
chain: MGTTSDEMVSVEQTSSSSLNPLCFECGQQHWTRENHLYNYQNEVDDDLVCHICLQPLLQPLDTPCGHTFCYKCLRNFLQEKDFCPLDRKRLHFKLCKKSSILVHKLLDKLLVLCPFSSVCKDVMQRCDLEAHLKNRCPGASHRRVALERRKTSRTQAEIENENGPTLLDPAGTLSPEADCLGTGAVPVERHLTSASLSTWSEEPGLDNPAFEESAGADTTQQPLSLPEGEITTIEIHRSNPYIQLGISIVGGNETPLINIVIQEVYRDGVIARDGRLLAGDQILQVNNYNISNVSHNYARAVLSQPCNTLHLTVLRERRFGNRAHNHSDSNSPREEIFQVALHKRDSGEQLGIKLVRRTDEPGVFILDLLEGGLAAQDGRLSSNDRVLAINGHDLKYGTPELAAQIIQASGERVNLTIARPGKPQPGNTIREAGNHSSSSQHHTPPPYYSRPSSHKDLTQCVTCQEKHITVKKEPHESLGMTVAGGRGSKSGELPIFVTSVPPHGCLARDGRIKRGDVLLNINGIDLTNLSHSEAVAMLKASAASPAVALKALEVQIVEEATQNAEEQPSTFSENEYDASWSPSWVMWLGLPSTLHSCHDIVLRRSYLGSWGFSIVGGYEENHTNQPFFIKTIVLGTPAYYDGRLKCGDMIVAVNGLSTVGMSHSALVPMLKEQRNKVTLTVICWPGSLV
partner: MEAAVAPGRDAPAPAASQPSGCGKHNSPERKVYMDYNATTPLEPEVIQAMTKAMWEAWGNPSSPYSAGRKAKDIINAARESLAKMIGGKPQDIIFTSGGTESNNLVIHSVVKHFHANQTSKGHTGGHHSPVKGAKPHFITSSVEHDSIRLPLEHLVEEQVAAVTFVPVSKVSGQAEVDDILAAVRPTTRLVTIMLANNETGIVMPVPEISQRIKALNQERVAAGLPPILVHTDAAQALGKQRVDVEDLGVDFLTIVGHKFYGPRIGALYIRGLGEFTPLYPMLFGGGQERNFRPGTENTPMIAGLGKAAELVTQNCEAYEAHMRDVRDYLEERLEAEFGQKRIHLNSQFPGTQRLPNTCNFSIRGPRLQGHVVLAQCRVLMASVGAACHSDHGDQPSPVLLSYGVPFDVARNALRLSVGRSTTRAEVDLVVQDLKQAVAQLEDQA
B2: Multifunctional procollagen lysine hydroxylase and glycosyltransferase LH3 (Homo sapiens), O60568 (parent)
chain: MTSSGPGPRFLLLLPLLLPPAASASDRPRGRDPVNPEKLLVITVATAETEGYLRFLRSAEFFNYTVRTLGLGEEWRGGDVARTVGGGQKVRWLKKEMEKYADREDMIIMFVDSYDVILAGSPTELLKKFVQSGSRLLFSAESFCWPEWGLAEQYPEVGTGKRFLNSGGFIGFATTIHQIVRQWKYKDDDDDQLFYTRLYLDPGLREKLSLNLDHKSRIFQNLNGALDEVVLKFDRNRVRIRNVAYDTLPIVVHGNGPTKLQLNYLGNYVPNGWTPEGGCGFCNQDRRTLPGGQPPPRVFLAVFVEQPTPFLPRFLQRLLLLDYPPDRVTLFLHNNEVFHEPHIADSWPQLQDHFSAVKLVGPEEALSPGEARDMAMDLCRQDPECEFYFSLDADAVLTNLQTLRILIEENRKVIAPMLSRHGKLWSNFWGALSPDEYYARSEDYVELVQRKRVGVWNVPYISQAYVIRGDTLRMELPQRDVFSGSDTDPDMAFCKSFRDKGIFLHLSNQHEFGRLLATSRYDTEHLHPDLWQIFDNPVDWKEQYIHENYSRALEGEGIVEQPCPDVYWFPLLSEQMCDELVAEMEHYGQWSGGRHEDSRLAGGYENVPTVDIHMKQVGYEDQWLQLLRTYVGPMTESLFPGYHTKARAVMNFVVRYRPDEQPSLRPHHDSSTFTLNVALNHKGLDYEGGGCRFLRYDCVISSPRKGWALLHPGRLTHYHEGLPTTWGTRYIMVSFVDP
partner: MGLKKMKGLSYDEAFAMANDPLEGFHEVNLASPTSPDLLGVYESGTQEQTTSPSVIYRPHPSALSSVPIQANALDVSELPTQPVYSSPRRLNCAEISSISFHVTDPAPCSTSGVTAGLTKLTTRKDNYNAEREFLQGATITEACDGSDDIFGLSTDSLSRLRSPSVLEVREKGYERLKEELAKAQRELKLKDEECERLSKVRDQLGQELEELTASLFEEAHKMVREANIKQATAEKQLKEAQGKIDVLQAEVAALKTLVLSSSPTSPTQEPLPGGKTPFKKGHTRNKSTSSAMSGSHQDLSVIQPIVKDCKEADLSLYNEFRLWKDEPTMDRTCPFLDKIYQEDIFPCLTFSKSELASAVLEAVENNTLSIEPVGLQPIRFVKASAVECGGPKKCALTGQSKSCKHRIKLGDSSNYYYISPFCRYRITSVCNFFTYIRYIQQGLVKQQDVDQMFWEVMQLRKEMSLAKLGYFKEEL
B3: Heterogeneous nuclear ribonucleoprotein F (Homo sapiens), P52597 (parent)
chain: MMLGPEGGEGFVVKLRGLPWSCSVEDVQNFLSDCTIHDGAAGVHFIYTREGRQSGEAFVELGSEDDVKMALKKDRESMGHRYIEVFKSHRTEMDWVLKHSGPNSADSANDGFVRLRGLPFGCTKEEIVQFFSGLEIVPNGITLPVDPEGKITGEAFVQFASQELAEKALGKHKERIGHRYIEVFKSSQEEVRSYSDPPLKFMSVQRPGPYDRPGTARRYIGIVKQAGLERMRPGAYSTGYGGYEEYSGLSDGYGFTTDLFGRDLSYCLSGMYDHRYGDSEFTVQSTTGHCVHMRGLPYKATENDIYNFFSPLNPVRVHIEIGPDGRVTGEADVEFATHEEAVAAMSKDRANMQHRYIELFLNSTTGASNGAYSSQVMQGMGVSAAQATYSGLESQSVSGCYGAGYSGQNSMGGYD
B4: Inactive peptidyl-prolyl cis-trans isomerase FKBP6 (Homo sapiens), O75344 (parent)
chain: MGGSALNQGVLEGDDAPGQSLYERLSQRMLDISGDRGVLKDVIREGAGDLVAPDASVLVKYSGYLEHMDRPFDSNYFRKTPRLMKLGEDITLWGMELGLLSMRRGELARFLFKPNYAYGTLGCPPLIPPNTTVLFEIELLDFLDCAESDKFCALSAEQQDQFPLQKVLKVAATEREFGNYLFRQNRFYDAKVRYKRALLLLRRRSAPPEEQHLVEAAKLPVLLNLSFTYLKLDRPTIALCYGEQALIIDQKNAKALFRCGQACLLLTEYQKARDFLVRAQKEQPFNHDINNELKKLASCYRDYVDKEKEMWHRMFAPCGDGSTAGES
partner: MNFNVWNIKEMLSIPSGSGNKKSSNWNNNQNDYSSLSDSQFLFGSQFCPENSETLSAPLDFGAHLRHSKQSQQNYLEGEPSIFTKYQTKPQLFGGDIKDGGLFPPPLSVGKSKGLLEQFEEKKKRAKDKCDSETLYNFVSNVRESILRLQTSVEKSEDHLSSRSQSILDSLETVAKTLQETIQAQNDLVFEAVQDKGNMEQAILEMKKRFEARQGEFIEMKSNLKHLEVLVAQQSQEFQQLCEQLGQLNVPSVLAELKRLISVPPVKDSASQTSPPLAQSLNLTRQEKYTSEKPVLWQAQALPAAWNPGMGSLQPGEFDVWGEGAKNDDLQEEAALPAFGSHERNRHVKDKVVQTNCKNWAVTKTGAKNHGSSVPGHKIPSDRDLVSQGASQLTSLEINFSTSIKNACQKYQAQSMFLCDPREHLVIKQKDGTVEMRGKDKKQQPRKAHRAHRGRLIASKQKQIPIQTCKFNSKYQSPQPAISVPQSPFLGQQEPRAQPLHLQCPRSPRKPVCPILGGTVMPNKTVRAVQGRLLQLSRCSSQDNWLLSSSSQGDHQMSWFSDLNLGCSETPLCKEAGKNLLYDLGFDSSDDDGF
B5: Zyxin (Homo sapiens), Q15942 (parent)
chain: MAAPRPSPAISVSVSAPAFYAPQKKFGPVVAPKPKVNPFRPGDSEPPPAPGAQRAQMGRVGEIPPPPPEDFPLPPPPLAGDGDDAEGALGGAFPPPPPPIEESFPPAPLEEEIFPSPPPPPEEEGGPEAPIPPPPQPREKVSSIDLEIDSLSSLLDDMTKNDPFKARVSSGYVPPPVATPFSSKSSTKPAAGGTAPLPPWKSPSSSQPLPQVPAPAQSQTQFHVQPQPQPKPQVQLHVQSQTQPVSLANTQPRGPPASSPAPAPKFSPVTPKFTPVASKFSPGAPGGSGSQPNQKLGHPEALSAGTGSPQPPSFTYAQQREKPRVQEKQHPVPPPAQNQNQVRSPGAPGPLTLKEVEELEQLTQQLMQDMEHPQRQNVAVNELCGRCHQPLARAQPAVRALGQLFHIACFTCHQCAQQLQGQQFYSLEGAPYCEGCYTDTLEKCNTCGEPITDRMLRATGKAYHPHCFTCVVCARPLEGTSFIVDQANRPHCVPDYHKQYAPRCSVCSEPIMPEPGRDETVRVVALDKNFHMKCYKCEDCGKPLSIEADDNGCFPLDGHVLCRKCHTARAQT
partner: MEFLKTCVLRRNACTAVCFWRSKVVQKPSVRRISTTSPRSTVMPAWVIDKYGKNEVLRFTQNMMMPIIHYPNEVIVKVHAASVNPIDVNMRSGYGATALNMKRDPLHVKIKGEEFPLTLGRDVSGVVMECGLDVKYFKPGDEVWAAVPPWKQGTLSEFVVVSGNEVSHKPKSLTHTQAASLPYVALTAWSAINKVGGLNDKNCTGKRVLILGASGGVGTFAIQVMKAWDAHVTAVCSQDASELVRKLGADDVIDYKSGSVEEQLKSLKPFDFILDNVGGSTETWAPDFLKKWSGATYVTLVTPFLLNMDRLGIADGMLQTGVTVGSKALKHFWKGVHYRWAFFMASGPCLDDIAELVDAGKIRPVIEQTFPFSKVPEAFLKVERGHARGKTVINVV
B6: Transcription factor RFX3 (Homo sapiens), P48380 (parent)
chain: MQTSETGSDTGSTVTLQTSVASQAAVPTQVVQQVPVQQQVQQVQTVQQVQHVYPAQVQYVEGSDTVYTNGAIRTTTYPYTETQMYSQNTGGNYFDTQGSSAQVTTVVSSHSMVGTGGIQMGVTGGQLISSSGGTYLIGNSMENSGHSVTHTTRASPATIEMAIETLQKSDGLSTHRSSLLNSHLQWLLDNYETAEGVSLPRSTLYNHYLRHCQEHKLDPVNAASFGKLIRSIFMGLRTRRLGTRGNSKYHYYGIRVKPDSPLNRLQEDMQYMAMRQQPMQQKQRYKPMQKVDGVADGFTGSGQQTGTSVEQTVIAQSQHHQQFLDASRALPEFGEVEISSLPDGTTFEDIKSLQSLYREHCEAILDVVVNLQFSLIEKLWQTFWRYSPSTPTDGTTITESSNLSEIESRLPKAKLITLCKHESILKWMCNCDHGMYQALVEILIPDVLRPIPSALTQAIRNFAKSLEGWLSNAMNNIPQRMIQTKVAAVSAFAQTLRRYTSLNHLAQAARAVLQNTSQINQMLSDLNRVDFANVQEQASWVCQCDDNMVQRLETDFKMTLQQQSTLEQWAAWLDNVMMQALKPYEGRPSFPKAARQFLLKWSFYSSMVIRDLTLRSAASFGSFHLIRLLYDEYMFYLVEHRVAQATGETPIAVMGEFGDLNAVSPGNLDKDEGSEVESEMDEELDDSSEPQAKREKTELSQAFPVGCMQPVLETGVQPSLLNPIHSEHIVTSTQTIRQCSATGNTYTAV
partner: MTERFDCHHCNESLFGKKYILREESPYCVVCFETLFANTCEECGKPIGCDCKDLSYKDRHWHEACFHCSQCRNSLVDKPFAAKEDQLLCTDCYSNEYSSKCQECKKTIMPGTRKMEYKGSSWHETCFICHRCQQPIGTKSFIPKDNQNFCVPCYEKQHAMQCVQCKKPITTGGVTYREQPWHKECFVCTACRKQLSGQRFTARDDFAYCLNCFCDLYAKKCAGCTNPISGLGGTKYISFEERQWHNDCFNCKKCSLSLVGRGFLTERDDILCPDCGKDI

Variants of: B1
Conditions: with scly_human SCLY

Row | effect of a mutation on the interaction | Variant
1 | with no effect | P669A

Variants of: B2
Conditions: with rab3i_human RAB3IP

Row | effect of a mutation on the interaction | Variant
2 | with no effect | R235Q

Variants of: B3
Conditions: with hnrl1_human HNRNPUL1, Q9BUJ2
hnrl1_human HNRNPUL1, Q9BUJ2, sequence (Q9BUJ2 whole entry): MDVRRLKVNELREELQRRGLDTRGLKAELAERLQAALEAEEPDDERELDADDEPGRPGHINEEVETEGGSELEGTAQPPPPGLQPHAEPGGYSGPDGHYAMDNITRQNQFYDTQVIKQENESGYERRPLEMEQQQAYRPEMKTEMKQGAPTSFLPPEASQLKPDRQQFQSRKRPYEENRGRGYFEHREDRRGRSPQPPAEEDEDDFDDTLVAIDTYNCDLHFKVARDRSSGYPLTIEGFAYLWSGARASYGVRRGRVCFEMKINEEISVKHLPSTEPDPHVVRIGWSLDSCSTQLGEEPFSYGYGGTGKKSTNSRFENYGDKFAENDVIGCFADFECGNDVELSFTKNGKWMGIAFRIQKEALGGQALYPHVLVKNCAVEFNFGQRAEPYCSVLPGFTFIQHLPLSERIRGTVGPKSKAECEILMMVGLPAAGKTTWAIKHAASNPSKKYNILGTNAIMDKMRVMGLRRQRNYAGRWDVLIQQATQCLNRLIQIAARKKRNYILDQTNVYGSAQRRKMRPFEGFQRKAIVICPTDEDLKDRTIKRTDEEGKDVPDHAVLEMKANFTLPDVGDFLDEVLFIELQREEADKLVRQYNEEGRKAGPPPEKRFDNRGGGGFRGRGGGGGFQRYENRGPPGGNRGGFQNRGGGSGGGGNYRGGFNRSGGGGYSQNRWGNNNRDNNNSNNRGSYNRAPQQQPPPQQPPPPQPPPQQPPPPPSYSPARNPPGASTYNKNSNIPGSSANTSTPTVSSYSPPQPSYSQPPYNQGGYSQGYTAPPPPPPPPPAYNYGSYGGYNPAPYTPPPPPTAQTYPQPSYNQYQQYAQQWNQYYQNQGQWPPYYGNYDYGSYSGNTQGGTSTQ

Row | effect of a mutation on the interaction | Variant
3 | with no effect | T48A

Variants of: B4
Conditions: with iho1_human IHO1, Q8IYA8

Row | effect of a mutation on the interaction | Variant
4 | disrupting interaction strength | L246F

Variants of: B5
Conditions: with rt4i1_human RTN4IP1, Q8WWV3

Row | effect of a mutation on the interaction | Variant
5 | with no effect | R167G

Variants of: B6
Conditions: with fhl2_human FHL2, Q14192

Row | effect of a mutation on the interaction | Variant
6 | with no effect | Y135D
